Experimental findings from patent US20040009892A1, “Method for the identification and use of substances that modulate POD function and/or structure” (The Salk Institute for Biological Studies, priority 1997, published 2004) are described below.

This experiment has as its system Hep-2 cells. The experiment can be described thus: Immunofluorescence localization of PML and DipA in Hep-2 cells. The format is cell-based. As to conditions: 5 μg of gamma interferon for 18 hrs before fixation. On the procedure:
Hep-2 cells were grown in round coverslips and maintained in DMEM supplemented with 10% fetal calf serum in a humidified atmosphere containing 5% CO2. Cells were treated with 5 μg of gamma interferon (Biosource) or mocked treated for 18 hrs before fixation. Cells were fixed by one of two methods. In a first method, the cells were fixed at room temperature for 5 min with freshly prepared 1% paraformaldehyde in PBS, washed with PBS, and permeabilized for 20 min on ice with 0.2% Triton X-100 in PBS (v/v) (Sigma Chemical Co.). Antigen localization (PML and DipA) was determined after incubation of permeabilized cells with rabbit antiserum (DipA Ab) and a specific PML mab diluted in PBS for 1 hr at RT. Cells were double labeled with the respective second antibodies labeled either with FITC or Texas red, using FITC for the structures with the lowest staining intensity.
Alternatively, cells were fixed at −20° C. for 5 min with fresh and cold acetone followed by fresh and cold absolute methanol.
The cells were incubated with the first Ab diluted in PBS-10% calf serum for two hrs at RT in a humidified chamber. Coverslips were washed for 10 min in PBS 0.05% Tween 20. […]
Fluorescence images were analyzed using either the Leica confocal scanning microscope or a Nikon Microphot-SA immunofluorescence microscope. […]

B1: interferon gamma: gamma interferon (Biosource) used to treat Hep-2 cells (protein, UniProt P01579 24-161, looked up)
Interferon gamma: QDPYVKEAENLKKYFNAGHSDVADNGTLFLGILKNWKEESDRKIMQSQIVSFYFKLFKNFKDDQSIQKSVETIKEDMNVKFFNSNKKKRDDFEKLTNYSVTDLNVQRKAIHELIQVMAELSPAAKTGKRKRSQMLFRG
Take B1: the “co-localization of PML and DipA in the POD structures” value is “increased co-localization of PML and DipA in the POD structures”.
